Data published in patent US20220025032A1 (Novartis, published 2022).
Where a chain is given by its changes, count along the chain named.

Legend:
Human BTC [1] = target: T1, Human BTC (human, UniProt P35070 32-111); assay: SPR (Biacore/ProteOn)
T1 construct: Soluble human BTC of the Biacore, ELISA, MSD and cell assays; also called human betacellulin; soluble human BTC
T1 sequence: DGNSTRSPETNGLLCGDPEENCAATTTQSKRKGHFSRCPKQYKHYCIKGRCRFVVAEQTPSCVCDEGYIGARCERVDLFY

Mouse BTC = target: T2, Mouse BTC (mouse, UniProt Q05928 32-111, limits assumed); assay: SPR (Biacore/ProteOn)
T2 sequence (looked up): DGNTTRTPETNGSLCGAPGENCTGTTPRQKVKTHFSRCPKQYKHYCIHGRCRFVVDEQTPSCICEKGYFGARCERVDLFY

Cyno BTC = target: T3, Cyno BTC (cynomolgus, UniProt A0A2K5X5E5 32-111); assay: SPR (Biacore/ProteOn)
T3 construct: also called cynomolgus BTC
T3 sequence: T1 sequence with E19D, A56T

Rat BTC = target: T4, Rat BTC (rat, UniProt Q9JJM4 32-111); assay: SPR (Biacore/ProteOn)
T4 sequence: T2 sequence (looked up) with V31S, V55M, R75Q

Rabbit BTC = target: T5, Rabbit BTC (rabbit, UniProt G1SJ89 32-111); assay: SPR (Biacore/ProteOn)
T5 sequence: T1 sequence with D1S, L14S, D17Y, E19G, A23T, T27V, S29P, V63I, I69T

Human BTC [2] = target: T1, Human BTC; assay: MSD-based inhibition of BTC binding to ErbB4
Human BTC [3] = target: T1, Human BTC; assay: cell-based inhibition of BTC binding to ErbB4
[4] = target: T6, membrane-bound human BTC on 293F-hBTC cells (human, UniProt P35070 32-111); assay: flow cytometry, 293F cells with BTC against 293F
T6 construct: the transfected construct is not described; also called membrane-anchored BTC
T6 sequence: T1 sequence

Human BTC [5] = target: T1, Human BTC; assay: inhibition of BTC binding to ErbB1; y axis MSD units, x axis Fab (pM); blocked partner ErbB1
Human BTC [6] = target: T1, Human BTC; assay: inhibition of BTC binding to ErbB4; y axis MSD units, x axis Antibody concentration (pM); blocked partner ErbB4
[7] = target: T6, membrane-bound human BTC on 293F-hBTC …; assay: flow cytometry on 293F cells with membrane-bound human BTC, anti-human Fab detection; y axis Percent Positive Binding, x axis Antibody concentration (nM)
Protocol: After washing the cells, the cells were dissociated using Versene at 37° C. The cells were washed with FACS buffer and plated at 100 μl in a 96 well plate using cells at 1×10⁶ cells/ml. Then 100 μl of a serial dilution of antibodies starting at 50 nM was used. The cells were incubated, washed and then treated with the secondary anti-human Fab-FITC antibody. The antibodies only bound to the cells expressing BTC. After which the cells were washed and analyzed on the Attune Flow Cytometry. All data analysis was carried out using Flow Jo software.
In FIG. 6A, Flow cytometry was used to assess the binding of NVS11 to membrane-bound BTC using an anti-human Fab antibody for detection.

Human BTC-avitag-biotin [8] = target: T7, Human BTC-avitag-biotin (human, UniProt P35070 32-111, biotin on the avitag); assay: flow cytometry, BTC-ErbB1 Cell Binding Inhibition: antibody pre-incubated with 15 nM human BTC-avitag-biotin, HKB11 cells over-expressing human ErbB1; y axis Percent Inhibition
T7 construct: also called biotin-BTC; soluble human BTC-avitag-biotin
T7 sequence: T1 sequence
Protocol: (§1) HKB11 over-expressing either ErbB1 or ErbB4 cells were plated 1×10⁵ cells/well. Cells were washed once with FACS buffer by spun down at 1200 rpm for 5 minutes and supernatant removed. Next, the Fab sample dilutions and BTC were prepared in FACS buffer. Human BTC-avitag-biotin was diluted to a fixed concentration of 15 nM. The test Fab samples were prepared at a starting concentration of 40 nM and titrated for 9 points at a serial dilution of 1:2. Both biotin-BTC and the test Fab samples are incubated for 30 minutes at room temperature. The pre-incubated samples were then added to the cell plate at 100 μl per well in duplicate and incubated for 1 hour on ice. The plate was then washed once in FACS buffer and spun down at 1200 rpm for 5 minutes and supernatant removed. […]
(§2) Measurements were performed on Attune Flow Cytometry machine. Data were analysed using the Flow Jo software. The live cell populations analysed were gated in forward and side scattering (FSC-A/SSC-A dot plot). The interval gate was established on the control histogram, which was obtained with sample incubated in streptavidin-Alexa Fluor488 only, and subsequently, determined percent of positive binding events of cells carrying membrane-bound receptor ErbB1 or ErbB4 and biotin-BTC. The median of fluorescence intensity (MFI) value was also derived for the live cell population. […]

Human BTC-avitag-biotin [9] = target: T7, Human BTC-avitag-biotin; assay: flow cytometry, BTC-ErbB4 Cell Binding Inhibition: antibody pre-incubated with 15 nM human BTC-avitag-biotin, HKB11 cells over-expressing human ErbB4; y axis Percent Inhibition
Protocol: as §1, §2

- Kd (Human BTC [1]): 6 pM
- Kd (Mouse BTC): 4 pM
- Kd (Cyno BTC): 8 pM
- Kd (Rat BTC): 7 pM
- Kd (Rabbit BTC): 4 pM
- MSD-based binding inhibition BTC/ErbB4 (Human BTC [2]): > 90%
- Cell-based binding inhibition BTC/ErbB4 (Human BTC [3]): > 90%
- Binding to membrane-anchored BTC (median, X above 293F) [4]: > 10 X above 293F
- IC50 (Human BTC [5]): 301 pM
- IC50 (Human BTC [6]): 591 pM
- EC50 [7]: 133 pM
- IC50 (Human BTC-avitag-biotin [8]): 2500 pM
- IC50 (Human BTC-avitag-biotin [9]): 7400 pM
B1: NVS1 (Fab, V domains shown)
VH: QVQLVQSGAEVKKPGSSVKVSCKASGGTFSSYAISWVRQAPGQGLEWMGGIVPWMGEAVYAQKFQGRVTITADESTSTAYMELSSLRSEDTAVYYCARSSSTYGIHAFDYWGQGTLVTVSS
VL: DIQMTQSPSSLSASVGDRVTITCRASQSISNFLNWYQQKPGKAPKLLIYAASNLQSGVPSRFSGSGSGTDFTLTISSLQPEDFATYYCQQYDDFPMTFGQGTKVEIKR
notes: also called Fab NVS1; NVS1 Fab
